Reference: US20130012436A1 (Bristol-Myers Squibb, published 2013)

Columns and labels:
human IL-23 [1] = biological target: T1, human IL-23 (human, UniProt Q9NPF7 20-189; P29460 23-328); test: SPR, Adnectin captured by anti-His mAb, IL-23 injected
T1 construct: also called hIL-23; human recombinant IL-23
T1 sequence (looked up) 1: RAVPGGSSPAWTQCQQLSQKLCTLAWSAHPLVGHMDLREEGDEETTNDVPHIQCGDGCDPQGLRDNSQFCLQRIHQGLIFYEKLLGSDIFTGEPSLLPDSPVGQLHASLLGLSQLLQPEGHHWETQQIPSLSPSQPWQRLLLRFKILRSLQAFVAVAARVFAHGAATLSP
T1 sequence (looked up) 2: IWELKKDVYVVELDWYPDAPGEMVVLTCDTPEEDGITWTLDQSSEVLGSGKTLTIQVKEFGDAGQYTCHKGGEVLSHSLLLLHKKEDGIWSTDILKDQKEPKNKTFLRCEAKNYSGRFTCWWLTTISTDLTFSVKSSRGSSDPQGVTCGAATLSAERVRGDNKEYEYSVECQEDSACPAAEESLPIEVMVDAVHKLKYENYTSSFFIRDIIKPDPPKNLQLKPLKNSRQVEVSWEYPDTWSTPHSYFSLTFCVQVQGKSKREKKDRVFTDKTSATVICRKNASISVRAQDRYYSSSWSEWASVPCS
Method: All surface plasmon experiments were conducted in HBS-EP (10 mM Hepes 150 mM NaCl 3 mM EDTA 0.05% Surfactant P20) at 25° C. IL-23 was injected over anti-His mAb captured Adnectins for 2 minutes followed by a 10 minute dissociation phase. Evaluation of the binding specificity was completed using Biacore T100 evaluation software. Additional detailed methods are described in Example 4.

human IL-23 [2] = biological target: T1, human IL-23; test: cell-based or functional assay

Binder | Kd (human IL-23 [1]) | koff (human IL-23 [1]) | kon (human IL-23 [1]) | Kit 225 pSTAT3 IC50 (nM) (human IL-23 [2])
1437A09 (designed binder, captured by anti-His mAb) MGVSDVPRDLEVVAATPTSLLISWGHYPMHVRYYRITYGETGGNSPVQEFTVPSKQHTATISGLKPGVDYTITVYAVTYYNEADYSQIPISINYRTEIDKPSQHHHHHH | 5.7 nM | 0.00046 s⁻¹ | 80600 M⁻¹ s⁻¹ | 20.2 nM
1490C07 (designed binder, captured by anti-His mAb) MGVSDVPRDLEVVAATPTSLLISWGHYPLHVRYYRITYGETGGNSPVQEFTVPSNRYTATISGLKPGVDYTITVYAVTYYNEADYSQIPISINYRTEIDKPSQHHHHHH | 4.5 nM | 0.000426 s⁻¹ | 95600 M⁻¹ s⁻¹ | 5.6 nM
1486B05 (designed binder, captured by anti-His mAb) MGVSDVPRDLEVVAATPTSLLISWGHYPMHVRYYRITYGETGGNSPVQEFTVPSRIYTATISGLKPGVDYTITVYAVTYYNEADYSQIPISINYRTEIDKPSQHHHHHH | 2.8 nM | 0.000381 s⁻¹ | 134000 M⁻¹ s⁻¹ | 4 nM
1487G03 (designed binder, captured by anti-His mAb) MGVSDVPRDLEVVAATPTSLLISWGHYPLHVRYYRITYGETGGNSPVQEFTVPAHRYTATISGLKPGVDYTITVYAVTYYNEADYSQIPISINYRTEIDKPSQHHHHHH | 3.1 nM | 0.000316 s⁻¹ | 103000 M⁻¹ s⁻¹ | 3 nM
1490 E02 (designed binder, captured by anti-His mAb) MGVSDVPRDLEVVAATPTSLLISWGHYPMHVRYYRITYGETGGNSPVQEFTVPRTQYTATISGLKPGVDYTITVYAVTYYNEADYSQIPISINYRTEIDKPSQHHHHHH | 4.8 nM | 0.000465 s⁻¹ | 97300 M⁻¹ s⁻¹ | 
1487C03 (designed binder, captured by anti-His mAb) MGVSDVPRDLEVVAATPTSLLISWGHYPLHIRYYRITYGETGGNSPVQEFTVPKQVYTATISGLKPGVDYTITVYAVTYYNEADYSQIPISINYRTEIDKPSQHHHHHH | 2.4 nM | 0.000382 s⁻¹ | 161000 M⁻¹ s⁻¹ | 3.7 nM
1490H06 (designed binder, captured by anti-His mAb) MGVSDVPRDLEVVAATPTSLLISWGHYPLHIRYYRITYGETGGNSPVQEFTVPRQKYTATISGLKPGVDYTITVYAVTYYNEADYSQIPISINYRTEIDKPSQHHHHHH |  |  | 93500 M⁻¹ s⁻¹ | 2.3 nM
1486G03 (designed binder, captured by anti-His mAb) MGVSDVPRDLEVVAATPTSLLISWGHYPMHVRYYRITYGETGGNSPVQEFTVPSRYYTATISGLKPGVDYTITVYAVTYYNEADYSQIPISINYRTEIDKPSQHHHHHH | 4.9 nM | 0.000425 s⁻¹ | 86200 M⁻¹ s⁻¹ | 3 nM
1550C05 (designed binder, captured by anti-His mAb) MGVSDVPRDLEVVAATPTSLLISWGHYPMHVRYYRITYGETGGNSPVQEFTVPPRRYTATISGLKPGVDYTITVYAVTYYNEADYSQIPISINYRTEIDKPSQHHHHHH | 2.1 nM | 0.000135 s⁻¹ | 65900 M⁻¹ s⁻¹ | 16.8 nM
1550A07 (designed binder, captured by anti-His mAb) MGVSDVPRDLEVVAATPTSLLISWGHYPMHVRYYRITYGETGGNSPVQEFTVPVPRYTATISGLKPGVDYTITVYAVTYYAQENYKEIPISINYRTEIDKPSQHHHHHH | 1.1 nM | 0.000133 s⁻¹ | 117000 M⁻¹ s⁻¹ | 1 nM
1550 E03 (designed binder, captured by anti-His mAb) MGVSDVPRDLEVVAATPTSLLISWGHYPLHIRYYRITYGETGGNSPVQEFTVPRMRHTATISGLKPGVDYTITVYAVTYYSEELYKYIPISINYRTEIDKPSQHHHHHH | 1.9 nM | 0.000186 s⁻¹ | 99500 M⁻¹ s⁻¹ | 5.3 nM
1487H04 (designed binder, captured by anti-His mAb) MGVSDVPRDLEVVAATPTSLLISWGHYPMHVRYYRITYGETGGNSPVQEFTVPARQYTATISGLKPGVDYTITVYAVTYYQEYEYRYIPISINYRTEIDKPSQHHHHHH |  |  | 59600 M⁻¹ s⁻¹ | 2 nM
1486D05 (designed binder, captured by anti-His mAb) MGVSDVPRDLEVVAATPTSLLISWGHYPLHVRYYRITYGETGGNSPVQEFTVPHQRYTATISGLKPGVDYTITVYAVTYYNEADYSQIPISINYRTEIDKPSQHHHHHH | 2.9 nM | 0.000344 s⁻¹ | 120000 M⁻¹ s⁻¹ | 4 nM
1486C04 (designed binder, captured by anti-His mAb) MGVSDVPRDLEVVAATPTSLLISWGHYPMHVRYYRITYGETGGNSPVQEFTVPPHRYTATISGLKPGVDYTITVYAVTYYNEADYSQIPISINYRTEIDKPSQHHHHHH | 3.4 nM | 0.000379 s⁻¹ | 112000 M⁻¹ s⁻¹ | 31.9 nM
